Reference: paper PMC11073785, “YeeD is an essential partner for YeeE-mediated thiosulfate uptake in bacteria and regulates thiosulfate ion decomposition” (PLOS Biology, 2024)
Changes are numbered by the printed parent chain. In names and notes the source's numbering stands.

T1: StYeeD (Winmispira thermophila, UniProt G0GAP7)
T1 construct: gene Spith_0735; expressed in E. coli C41(DE3)
T1 sequence (G0GAP7 1-80): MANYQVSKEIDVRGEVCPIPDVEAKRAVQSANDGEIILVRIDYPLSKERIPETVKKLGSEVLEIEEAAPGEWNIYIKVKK

T2: Spirochaeta thermophila YeeE (Spirochaeta thermophila, UniProt G0GAP6 1-328)
T2 construct: YeeE of Spirochaeta thermophila, residues 1-328, UniProt G0GAP6; Membrane protein, kept in 0.1% DDM; The His tag was removed with TEV(S219V) protease; also called StYeeE; TsuA; source: E. coli C41(DE3), purified from the membrane fraction in DDM (Ni-NTA, TEV cleavage, Superdex 200)
T2 sequence (looked up): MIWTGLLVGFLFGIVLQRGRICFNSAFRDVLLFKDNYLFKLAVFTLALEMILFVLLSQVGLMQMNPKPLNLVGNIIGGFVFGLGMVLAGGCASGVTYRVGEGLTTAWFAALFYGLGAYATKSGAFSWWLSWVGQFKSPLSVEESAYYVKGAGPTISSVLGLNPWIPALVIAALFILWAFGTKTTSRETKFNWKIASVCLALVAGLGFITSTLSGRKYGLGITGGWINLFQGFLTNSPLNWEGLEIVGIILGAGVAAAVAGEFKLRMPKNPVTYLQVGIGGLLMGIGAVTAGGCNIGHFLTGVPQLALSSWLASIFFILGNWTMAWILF

B1: Spirochaeta thermophila YeeD (WT), His6-tagged (natural protein, UniProt G0GAP7 1-80, looked up)
chain: T1 sequence (G0GAP7 1-80)
notes: YeeD of Spirochaeta thermophila, residues 1-80, UniProt G0GAP7; 11.3 kDa with the tag; As purified, C17 is partly modified (mass spectrometry: -SH, -S-O2-/-S-S-, -S-SO3-); also called StYeeD; StYeeD(WT); source: E. coli C41(DE3), purified (Ni-NTA, Superdex 200)
B2: StYeeD(V39A), His6-tagged (natural protein, Spirochaeta thermophila, UniProt G0GAP7 1-80, looked up)
chain: T1 sequence (G0GAP7 1-80) with V39A
notes: YeeD of Spirochaeta thermophila, residues 1-80, UniProt G0GAP7, with V39A; source: E. coli C41(DE3), purified (Ni-NTA, Superdex 200)
B3: StYeeD(V16A), His6-tagged (natural protein, Spirochaeta thermophila, UniProt G0GAP7 1-80, looked up)
chain: T1 sequence (G0GAP7 1-80) with V16A
notes: YeeD of Spirochaeta thermophila, residues 1-80, UniProt G0GAP7, with V16A; source: E. coli C41(DE3), purified (Ni-NTA, Superdex 200)
B4: StYeeD(E15A), His6-tagged (natural protein, Spirochaeta thermophila, UniProt G0GAP7 1-80, looked up)
chain: T1 sequence (G0GAP7 1-80) with E15A
notes: YeeD of Spirochaeta thermophila, residues 1-80, UniProt G0GAP7, with E15A; source: E. coli C41(DE3), purified (Ni-NTA, Superdex 200)
B5: StYeeD(L38A), His6-tagged (natural protein, Spirochaeta thermophila, UniProt G0GAP7 1-80, looked up)
chain: T1 sequence (G0GAP7 1-80) with L38A
notes: YeeD of Spirochaeta thermophila, residues 1-80, UniProt G0GAP7, with L38A; source: E. coli C41(DE3), purified (Ni-NTA, Superdex 200)
B6: StYeeD(L45A), His6-tagged (natural protein, Spirochaeta thermophila, UniProt G0GAP7 1-80, looked up)
chain: T1 sequence (G0GAP7 1-80) with L45A
notes: YeeD of Spirochaeta thermophila, residues 1-80, UniProt G0GAP7, with L45A; source: E. coli C41(DE3), purified (Ni-NTA, Superdex 200)
B7: StYeeD(Y43A), His6-tagged (natural protein, Spirochaeta thermophila, UniProt G0GAP7 1-80, looked up)
chain: T1 sequence (G0GAP7 1-80) with Y43A
notes: YeeD of Spirochaeta thermophila, residues 1-80, UniProt G0GAP7, with Y43A; source: E. coli C41(DE3), purified (Ni-NTA, Superdex 200)
B8: StYeeD(E9A), His6-tagged (natural protein, Spirochaeta thermophila, UniProt G0GAP7 1-80, looked up)
chain: T1 sequence (G0GAP7 1-80) with E9A
notes: YeeD of Spirochaeta thermophila, residues 1-80, UniProt G0GAP7, with E9A; source: E. coli C41(DE3), purified (Ni-NTA, Superdex 200)
B9: StYeeD(K8A), His6-tagged (natural protein, Spirochaeta thermophila, UniProt G0GAP7 1-80, looked up)
chain: T1 sequence (G0GAP7 1-80) with K8A
notes: YeeD of Spirochaeta thermophila, residues 1-80, UniProt G0GAP7, with K8A; source: E. coli C41(DE3), purified (Ni-NTA, Superdex 200)
B10: StYeeD(E63A), His6-tagged (natural protein, Spirochaeta thermophila, UniProt G0GAP7 1-80, looked up)
chain: T1 sequence (G0GAP7 1-80) with E63A
notes: YeeD of Spirochaeta thermophila, residues 1-80, UniProt G0GAP7, with E63A; source: E. coli C41(DE3), purified (Ni-NTA, Superdex 200)
B11: StYeeD(R49A), His6-tagged (natural protein, Spirochaeta thermophila, UniProt G0GAP7 1-80, looked up)
chain: T1 sequence (G0GAP7 1-80) with R49A
notes: YeeD of Spirochaeta thermophila, residues 1-80, UniProt G0GAP7, with R49A; source: E. coli C41(DE3), purified (Ni-NTA, Superdex 200)
B12: StYeeD(E48A), His6-tagged (natural protein, Spirochaeta thermophila, UniProt G0GAP7 1-80, looked up)
chain: T1 sequence (G0GAP7 1-80) with E48A
notes: YeeD of Spirochaeta thermophila, residues 1-80, UniProt G0GAP7, with E48A; source: E. coli C41(DE3), purified (Ni-NTA, Superdex 200)
B13: StYeeE (Winmispira thermophila DSM 6578) (protein)
chain: T2 sequence (looked up)
notes: 1-328 aa with C-terminal …-His8, His-tag removed by TEV; expressed in E. coli C41(DE3), purified in DDM, reconstituted in E. coli total lipid liposomes

Target: T1, StYeeD
Assay: H2S release with fluorescent probe HSip-1; adduct by MALDI-TOF MS
Type: biochemical
Conditions: 500 μM thiosulfate, 24.1 μM YeeD, 70 μM β-ME, pH 8.0, 37°C; covalent (C17)

Row | Molecule | H2S release with fluorescent probe HSip-1; adduct by MALDI-TOF MS
1 | O=S(O)(O)=S [thiosulfate ion] | suggesting that YeeD catalyzes the decomposition of thiosulfate as a substrate

Target: T2, Spirochaeta thermophila YeeE
Assay: BLI; StYeeD-His6 (4.82 μM) loaded on a Ni-NTA biosensor, 11.05 μM StYeeE in solution; Octet N1, room temperature; 20 mM Tris-HCl pH 8.0, 300 mM NaCl, 0.1% DDM, 1 mM β-ME; 120 s association, 120 s dissociation; local fitting; 3 measurements. WT was also run with 300 mM Na2SO4 (binding similar) or 300 mM Na2S2O3 (binding significantly decreased)
Conditions: both partners purified

Row | Kd [µM] | koff [s⁻¹] | kon [M⁻¹ s⁻¹] | Molecule
2 | 1.6 ± 0.2 | 0.027 ± 0.0029 | 17000 ± 2900 | B1
3 | 5.4 ± 0.3 | 0.032 ± 0.00058 | 5800 ± 330 | B2
4 | 5.6 ± 0.86 | 0.093 ± 0.023 | 17000 ± 1600 | B3
5 | 9.5 ± 4.2 | 0.071 ± 0.033 | 7500 ± 1300 | B4
6 | 1.7 ± 0.055 | 0.032 ± 0.003 | 18000 ± 1300 | B5
7 | 1.2 ± 0.1 | 0.035 ± 0.004 | 29000 ± 1600 | B6
8 | 20 ± 2.1 | 0.16 ± 0.017 | 8200 ± 950 | B7
9 | 4.6 ± 0.22 | 0.027 ± 0.0021 | 6000 ± 580 | B8
10 | 4.3 ± 0.61 | 0.037 ± 0.0019 | 8900 ± 1100 | B9
11 | 1.7 ± 0.074 | 0.03 ± 0.0013 | 18000 ± 260 | B10
12 | 17 ± 23 | 0.12 ± 0.16 | 9000 ± 1400 | B11
13 | 4.5 ± 6.2 | 0.14 ± 0.2 | 17000 ± 10000 | B12

Target: the molecule itself
Assay: SEC; purified His-tagged StYeeD(WT) on Superdex 200 Increase 10/300 GL, 10 mM Tris-HCl pH 8.0, 300 mM NaCl; two peaks compared with gel filtration markers
Conditions: not given

Row | Molecule | stoichiometry N
14 | B1 | 2

Substrate: O=S(O)(O)=S
Assay: solid-supported membrane electrophysiology of proteoliposomes, negative peak area
Type: biochemical, Winmispira thermophila
Conditions: transport, Na2S2O3 1.25-40 mM exchanged against equal Na2SO4, pH 6.7, Michaelis-Menten fit

Row | Molecule | Km [µM]
15 | B13 | 626.1
